Assay results taken from patent CN111138537A (REYOUNG (SUZHOU) BIOPHARMACEUTICAL CO LTD, dated 2020).

Target: T1, 人血清白蛋白 (human, UniProt P02768 25-609)
T1 construct: also called HSA; human serum albumin
Test: SPR (Biacore T200), HSA amine-coupled to CM5 chip, NB22 as analyte

B1: 单域抗体NB22 (VHH)
VHH: QVQLQESGGGSVQAGGSLRLSCAASAYTYSTTCMAWFRQAPGKEREKVATITTGGTYPYYADSVKGRFTISQDNAKNTVYLQMNSLKPEDTAMYYCAADASWGCRLSGSWSTVYNYWGQGTQVTVSS
notes: Camel (Bactrian) VHH from a phage display library; expressed in E. coli periplasm with a C-terminal 6x His tag and nickel-purified; also called 抗人血清白蛋白单域抗体
Kd: 0.683 nM
